Test results reported in the supplement of paper PMC10126150.
± gives the standard deviation of the averaged measurements.

Test system: ATP
Experiment: switch fluorescence ratio, 500 uM ATP over buffer (Cy3 cluster intensity, sum of 5 cycles each) (fold (ratio)); higher = stronger signal-on switching upon ATP binding; sequences stand for … in TCGTCGGCAGCGTCAGATGTGTATAAGAGACAGTTTTTTTTTTTTTTTTTTTTTTTTT…TC
Conditions: aptamer strand: ATP DNA aptamer (quencher-CACCTGGGGGAGTATTGCGGAGGAAGG + anchor), 100 nM annealed; ATP concentration: 500 uM
How it was run: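 Cy3-labelled switching-strand clusters on a modified Illumina MiSeq flow-cell were annealed to 100 nM quencher-labelled ATP aptamer, imaged in selection buffer, then imaged after 15 min with 500 uM ATP at 22 °C. Five buffer/ATP cycles ran, with NaOH stripping and re-annealing between them. The fluorescence ratio is summed target-cycle over summed buffer-cycle Cy3 intensity per cluster, averaged per switch-domain sequence. Clusters outside 100-1000 RFU were excluded.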
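Note: ATP exposure 15 min at 22 °C before imaging.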

Sequence | switch fluorescence ratio
CGGGATGGAG | 0.9879 ± 0.0062
CATGCTGTA | 0.981 ± 0.025
ATAAGGGAGA | 1 ± 0.037
CATAGCCGGT | 1.012 ± 0.0031
TAATGGTATG | 0.982 ± 0.039
GTTTCAGGGG | 1.09 ± 0.015
CATTGAAAGA | 1.01 ± 0.038
CAGCGAAGAG | 1.01 ± 0.0025
TTGTTTGCGA | 0.999 ± 0.01
AACATATTGG | 1.01 ± 0.073
AATAAAAGAT | 1 ± 0.017
ATTATCTACT | 1.04 ± 0.026
GTTGTGCCTG | 1.01 ± 0.041
ATGAGGCCGG | 1.12 ± 0.066
GTGAGATGGG | 0.984 ± 0.03
TTCCATAGGG | 0.987 ± 0.022
TCGGTGTTCA | 1 ± 0.011
AATTATGGGG | 0.999 ± 0.032
GAGGGAGGTG | 1.02 ± 0.018
AACAAGCTAT | 1.03 ± 0.055
AATTTGTGCG | 0.991 ± 0.012
TTTACATTGG | 1.01 ± 0.044
CGCGTCATGA | 1.02 ± 0.0043

Sequence | switch fluorescence ratio
TATCGACGGC | 1.03 ± 0.05
CTACGGGGCG | 1.01 ± 0.061
TGGACGCGCT | 1.01 ± 0.025
TTTTCCGACA | 2.28 ± 1.5
TTTGTAGACG | 1.04 ± 0.062
CCACCTATCT | 1.09 ± 0.052
GACTGTTAGG | 1.03 ± 0.016
GGGGGGCTAT | 0.976 ± 0.02
ATGCCATTAA | 0.9718 ± 0.0018
TCAGTTGACT | 1.011 ± 0.0055
TACGGGCGCG | 0.981 ± 0.017
GACCAAAGGG | 1.03 ± 0.058
AACTGGGGTT | 0.9868 ± 0.0035
CCGCAGGGTA | 1.259 ± 0.0092
CGGGTGGCCT | 1 ± 0.02
GTTTTCAAGT | 0.979 ± 0.039
GTGTTTAACC | 0.984 ± 0.021
AAATTCTTCT | 1.04 ± 0.04
ATGTTTATCT | 0.979 ± 0.044
CGCGAGAATA | 1.01 ± 0.084
TTTAAAGA | 0.991 ± 0.01
TGGATGGAAT | 0.961 ± 0.035
ACGATGTACT | 1.1 ± 0.013

Sequence | switch fluorescence ratio
GGCCGGTGTA | 1.03 ± 0.013
ACGGTTATTT | 1.072 ± 0.01
TTAGACTTAT | 1.01 ± 0.021
ATGTGTGTGG | 1.03 ± 0.017
GCCATGACGG | 0.988 ± 0.027
CGAGACGGGG | 0.959 ± 0.042
TGTTGTTATT | 1.018 ± 0.0091
ATGTAATCAT | 1.01 ± 0.024
ACTAGAAGAC | 1.04 ± 0.012
ACAACGGTCT | 1.042 ± 0.0035
TTACGGGCTC | 0.985 ± 0.058
TTTAGAAGGT | 0.995 ± 0.026
TCTACTTTAC | 1.39 ± 0.15
TTCTACGGGC | 1.11 ± 0.025
TCATGCTTGT | 0.985 ± 0.035
GGGGACGGGG | 1 ± 0.03
ACATCCGGAC | 1.343 ± 0.011
ATTGCCCGTT | 1.09 ± 0.21
TTTTGAGCGG | 1.04 ± 0.015
AACCGAACGA | 2.09 ± 0.072
GGCATGCCGG | 1.014 ± 0.0089
GCTTAATACT | 1.37 ± 0.054
AGGGCCGGCG | 1 ± 0.031

Sequence | switch fluorescence ratio
CTTAGGGTT | 0.997 ± 0.044
TACTTATATG | 1.03 ± 0.016
CGGGGATGCA | 1.03 ± 0.023
TGGGGGGGGC | 1.01 ± 0.034
GCAGACATAG | 0.983 ± 0.025
GTGATACACG | 1.004 ± 0.0033
ATATAGATTG | 1.03 ± 0.038
TTGGGGTAAG | 0.971 ± 0.03
GTTCTAAAAA | 1.02 ± 0.042
AAAGTTTGTT | 1.025 ± 0.007
AGATAGTATT | 0.986 ± 0.02
TATTTTTTTT | 1.01 ± 0.043
AACTGGGGAA | 0.973 ± 0.016
TTTTGCCAGT | 1.11 ± 0.23
AAGGGCGCTC | 0.975 ± 0.032
AATTCGGGGT | 1.005 ± 0.0024
GAAGGCTCTG | 0.9922 ± 0.0071
GGCTATCAAA | 1.01 ± 0.018
CCTATTAGG | 1 ± 0.011
GGGGCGGCGA | 1.02 ± 0.047
TGAAAACGGG | 1.022 ± 0.0095
GGGGTTAAAT | 1 ± 0.047
AGGTTGACTG | 0.988 ± 0.1

Sequence | switch fluorescence ratio
TTTGTTTGTG | 1 ± 0.014
TAAGCGGGG | 1.002 ± 0.0026
ATTTTTTGTA | 0.984 ± 0.026
AACCCATTTG | 1.29 ± 0.48
TTTTACGGGT | 1.02 ± 0.087
ATGGAATAAG | 0.998 ± 0.028
GGAATTATGA | 0.995 ± 0.024
TGCAATGGGC | 1.21 ± 0.086
TATAGCTTCG | 1 ± 0.043
TAGAAGTTTG | 0.976 ± 0.026
ATAGAACTTT | 0.9968 ± 0.0095
GGCACCACCT | 1.157 ± 0.0082
TTTATAATAT | 1.03 ± 0.015
CGTGAACTCT | 0.999 ± 0.016
TTAACGGGTT | 1.02 ± 0.037
CTTTGACGGG | 0.989 ± 0.013
GGTTCTTCGG | 0.9938 ± 0.0066
ATATCGAGTT | 0.9894 ± 0.00022
GGGGAGGGAG | 1.0077 ± 0.00081
ACGTAAAAGT | 1.25 ± 0.41
GGTTATTTGA | 0.974 ± 0.028
AAGGTCATTT | 1 ± 0.034
ACAAGGCAGA | 1.04 ± 0.013

Sequence | switch fluorescence ratio
GAAGGGTCTG | 0.969 ± 0.012
AGGGTGTGGT | 0.9841 ± 0.0039
ACTTCAGCAG | 1.12 ± 0.023
ACTGCCGTAT | 1.01 ± 0.036
TTGGGCCACG | 0.983 ± 0.011
ACGTGCAGTC | 1.12 ± 0.083
CTGGGTGGGC | 0.993 ± 0.018
TTGTTAAGGC | 1.02 ± 0.037
ATGGATGATG | 0.991 ± 0.018
AAGGATGTGT | 0.98 ± 0.012
GACGTTGAGG | 0.983 ± 0.023
CTGTACGACA | 1.18 ± 0.02
AATATGTGTG | 0.97933 ± 0.00034
GTAATTTTGG | 0.983 ± 0.037
TTGGGTCAGG | 1.02 ± 0.028
TCGGTGCTGG | 0.977 ± 0.018
TGTTGGGGAG | 0.972 ± 0.025
TACTCGCCAT | 1.13 ± 0.035
TATTGAATGG | 0.972 ± 0.03
GAGAGTCTAG | 0.989 ± 0.015
AACGGTGGTC | 1.03 ± 0.075
ATAAGTTCCG | 0.996 ± 0.028
GTTTTTTTT | 1.05 ± 0.069

Sequence | switch fluorescence ratio
GGAGCATTTG | 1.27 ± 0.039
CTTCCGTTTT | 1.28 ± 0.042
TCTTTTTCCC | 1.01 ± 0.022
AGGTTAGTGG | 1.015 ± 0.01
GTTTCCAACT | 1.01 ± 0.021
TTATAAAAAC | 0.982 ± 0.076
ACTTGCTATC | 1.25 ± 0.048
CGGTCTGTGG | 0.995 ± 0.021
TTTTAGTATT | 0.9973 ± 0.0091
AATCAAGTAG | 0.9821 ± 0.0086
TGTAGATGGC | 1.03 ± 0.044
AGGGGGGGA | 0.9821 ± 0.0079
AAAAAAAGCT | 1.06 ± 0.075
CATGTCTGCT | 0.9777 ± 0.0032
TATGGGTTGG | 1.02 ± 0.04
AAAAATAGGG | 1.03 ± 0.04
ATAATTACTT | 1.01 ± 0.018
AGGTTGTGTG | 0.959 ± 0.044
TCGGTTTTTA | 1 ± 0.043
